{"source": "paper PMC4006364", "about": "(Nature chemical biology, 2014)", "molecules": {"B1": {"name": "dsDNA (dsDNA)", "DNA 1": "AGAATGGAGCAGGTGCGCTGCGAGCAGTG", "DNA 2": "CACTGCTCGCAGCGCACCTGCTCCATTCT"}}, "key": {"AfXPB [1]": {"molecular_target": "T1, AfXPB (Archaeoglobus fulgidus, UniProt O29889)", "T1 sequence (O29889 1-452)": "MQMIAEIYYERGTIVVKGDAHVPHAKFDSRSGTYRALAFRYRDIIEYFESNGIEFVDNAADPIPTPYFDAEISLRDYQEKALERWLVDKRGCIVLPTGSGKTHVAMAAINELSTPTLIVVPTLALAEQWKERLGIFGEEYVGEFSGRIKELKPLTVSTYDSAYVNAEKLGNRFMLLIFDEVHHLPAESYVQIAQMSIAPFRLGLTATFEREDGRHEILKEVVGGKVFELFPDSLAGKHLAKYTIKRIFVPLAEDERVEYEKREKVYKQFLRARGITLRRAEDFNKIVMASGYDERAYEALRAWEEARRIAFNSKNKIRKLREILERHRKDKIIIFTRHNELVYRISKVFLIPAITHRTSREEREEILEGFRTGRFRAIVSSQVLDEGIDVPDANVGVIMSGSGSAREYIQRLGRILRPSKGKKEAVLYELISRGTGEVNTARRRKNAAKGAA", "assay": "gel mobility shift, inhibition of […]-G4 DNA binding", "settings": "no Mg2+, pH 7.9, 50 °C; inhibits G4 DNA binding"}, "AfXPB [2]": {"molecular_target": "T1, AfXPB", "assay": "gel mobility shift, inhibition of […]-G4 DNA binding"}, "SaXPD": {"molecular_target": "SaXPD (Sulfolobus acidocaldarius, UniProt Q4JC68)", "settings": "1 mM Mg-ATP, pH 6.5, 45 °C"}, "XPB (AfXPB) WT [3]": {"molecular_target": "T2, XPB (AfXPB) WT (Archaeoglobus fulgidus, UniProt O29889 1-452)", "T2 sequence": "T1 sequence (O29889 1-452)", "assay": "EMSA"}, "XPB (AfXPB) WT [4]": {"molecular_target": "T2, XPB (AfXPB) WT", "assay": "EMSA", "remark": "listed apart in the source"}, "XPD (SaXPD)": {"molecular_target": "T3, XPD (SaXPD) (Sulfolobus acidocaldarius, UniProt Q4JC68 1-551)", "T3 sequence": "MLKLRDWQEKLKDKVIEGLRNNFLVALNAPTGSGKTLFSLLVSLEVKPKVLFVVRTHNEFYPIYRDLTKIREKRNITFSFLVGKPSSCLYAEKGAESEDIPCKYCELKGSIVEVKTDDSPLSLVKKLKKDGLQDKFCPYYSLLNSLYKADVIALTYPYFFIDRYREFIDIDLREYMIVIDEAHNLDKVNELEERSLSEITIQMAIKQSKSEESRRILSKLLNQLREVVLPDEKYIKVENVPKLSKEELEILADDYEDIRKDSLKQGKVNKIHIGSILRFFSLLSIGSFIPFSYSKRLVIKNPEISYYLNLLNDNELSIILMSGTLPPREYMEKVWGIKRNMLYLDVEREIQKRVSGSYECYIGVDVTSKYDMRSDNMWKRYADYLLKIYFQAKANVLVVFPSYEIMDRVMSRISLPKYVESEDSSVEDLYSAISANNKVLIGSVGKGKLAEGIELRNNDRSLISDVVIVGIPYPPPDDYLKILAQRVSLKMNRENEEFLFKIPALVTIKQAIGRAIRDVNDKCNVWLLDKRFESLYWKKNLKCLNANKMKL", "assay": "EMSA"}, "AfXPB K101R": {"molecular_target": "T4, AfXPB K101R (Archaeoglobus fulgidus, UniProt O29889 1-452, K101R)", "T4 sequence": "T1 sequence (O29889 1-452) with K101R", "assay": "EMSA"}}, "note": "Substitutions are numbered along the chain they refer to. Read-outs that look alike come from different tables or passages of the source."}
{"molecule": "Nc1ncnc2c1ncn2[C@@H]1O[C@H](COP(=O)(O)OP(=O)(O)OP(O)(O)=S)[C@@H](O)[C@H]1O", "note": "[ATP-γS]", "values": [{"measurement": "inhibition of G4 DNA binding", "setting": "AfXPB [1]", "value": "ATP-γS similarly inhibited G4 DNA binding, so inhibition did not depend upon ATP hydrolysis"}]}
{"molecule": "Nc1ncnc2c1ncn2[C@@H]1O[C@H](COP(=O)(O)OP(=O)(O)O)[C@@H](O)[C@H]1O", "note": "[ADP]", "values": [{"measurement": "Ki", "setting": "AfXPB [2]", "value": "~4", "unit": "mM"}]}
{"molecule": "Nc1ncnc2c1ncn2[C@@H]1O[C@H](COP(=O)(O)OP(=O)(O)OP(=O)(O)O)[C@@H](O)[C@H]1O", "note": "[ATP]", "values": [{"measurement": "32P-G4 DNA unwinding assay, native gel", "setting": "SaXPD", "value": "robust G4 DNA unwinding activity in the presence of ATP but not ATP-γS"}]}
{"molecule": "AGAATGGAGCAGGTGCGCTGCGAGCAGTG (ssDNA)", "note": "[ssDNA]", "values": [{"measurement": "binding result", "setting": "XPB (AfXPB) WT [3]", "value": "no binding"}]}
{"molecule": "TGGACCAGACCTAGCAGCTATGGGGGAGCTGGGGAAGGTGGGAATGTGA (structured_DNA)", "note": "[G4 DNA (TP oligonucleotide)]", "values": [{"measurement": "binding result", "setting": "XPB (AfXPB) WT [4]", "value": "binds"}, {"measurement": "binding result", "setting": "XPD (SaXPD)", "value": "binds"}, {"measurement": "binding result", "setting": "AfXPB K101R", "value": "no binding"}]}
{"molecule": "B1", "values": [{"measurement": "binding result", "setting": "XPB (AfXPB) WT [3]", "value": "no binding"}]}
